Positions count from the first letter of the chain named. Blank lines part the entries; values can stand above or below the molecule they belong to.
Key:
[1] = system: human CD33; test: Biacore SPR binding kinetics of anti-CD33 scFv-Fc clones with or without 10 µM MTX; conditions: CD33, 37° C., pH 7.4, scFv-Fc
From the text: The first 4 rounds of panning used biotinylated CD33 antigen captured on streptavidin or neutravidin coated 96-well plates. […] 1536 clones were randomly chosen from the 4th and 5th round of panning against the CD33 antigen and their binding specificity determined by phage ELISA. Clones that specifically bound to CD33 were sequenced and all unique clones were subjected to a phage competition ELISA to assess their relative affinities to CD33 and sensitivity to MTX by measuring their binding strengths in the presence or absence of 10 µM (micromolar) MTX (i.e. in 0 or 10 µM MTX).
All binding kinetics analysis was performed on label-free Biacore surface plasmon biosensors (Biacore T200™ from GE Life Sciences) at 37° C. in 10 mM Hepes pH 7.4, 150 mM NaCl, 0.05% Tween-20 (HBST+), with or without 10 µM MTX. The Biacore data were processed in Biacore T200 Evaluation Software, and the data were double-referenced (Myszka, 1999, J Mol Recognit 12(5):279-284) and fit globally to a simple Langmuir with mass transport model to determine the equilibrium dissociation constant, KD, from the ratio of the kinetic rate constants (KD = koff/kon). In some cases the binding of antigen was very low (or not detectable) in the presence of 10 µM MTX and as a result kinetic rate constants could not be accurately determined. In these cases, a KD (or KD limit) was estimated based on the binding response at the highest analyte concentration tested or based on the typical limit of detection for a Biacore T200.

[2] = system: MV4-11 cells; test: Sequential rounds of in vitro cytotoxicity assays with changing MTX concentration (reversible inhibition); format: cell-based, human; conditions: Round 0-1 no MTX, then 100 µM MTX at Round 1-2 and Round 2-3; FIGS. 9A and 9B
Procedure: The anti-CD33 clones tested in this example were: P03_A01, P07_C04, and P02_D09. In addition, a tool T cell was prepared as described in Example 4, as were untransduced T cells. Also, each of the different conditional CAR T cells described above was generated in triplicate from PBMC cells from three different human donors. The target cell line used in this assay was MV4-11; these cells were transduced to stably express GFP and firefly luciferase, as described in Example 5.
This experiment involved a series of in vitro cytotoxicity assays, in which co-cultures of T cells and MV4-11 target cells were incubated together for multiple rounds of sequential cytotoxicity assays, in which the MTX concentration changed at different rounds of the assays. In vitro cytotoxicity assays were carried out in 24-well plates by co-culturing 200,000 T cells with 200,000 MV4-11 cells, for each different T cells described above. In addition, each of the co-cultures contained either 100 µM MTX or 0 µM MTX at different times, as indicated by the schematics in FIGS. 9A and 9C. In both conditions, 1 mM leucovorin was supplemented to circumvent MTX toxicity. For each round of the assay, co-cultures were maintained in a final volume of 500 µl of RPMI 1640 medium at 37 C with 5% CO2 for 48 hours. At the end of each round, cells were spun down (250 × g, 10 minutes), supernatant was removed, and fresh media containing fresh MV4-11 cells, leucovorin, and optionally MTX were added according to the schematics shown in FIGS. 9A and 9C. Target cell killing was assessed and plotted as described in Example 4.
In comparing the different panels of FIGS. 9A-9D, note that the schematics shown in FIGS. 9A and 9C indicate the MTX concentration in the co-culture at the start of the assay for a given round, whereas the results from that assay are shown the next round number in FIGS. 9B and 9D, respectively. […]

koff, kinetics toward antigen with 0 µM MTX [1]: 0.0029 s⁻¹
kon, kinetics toward antigen with 0 µM MTX [1]: 95000 M⁻¹ s⁻¹
koff, kinetics toward antigen with 10 µM MTX ([1]; 10 µM MTX): 0.025 s⁻¹
kon, kinetics toward antigen with 10 µM MTX ([1]; 10 µM MTX): 170000 M⁻¹ s⁻¹
B1: P07_C04: anti-CD33 clone with conditional affinity; VH SEQ ID NO: 25, VL SEQ ID NO: 26; also as scFv in CAR (antibody, V domains shown)
VH: QVQLVESGGGLVQAGGSLRLSCAASRRSSRSWAMHWVRQAPGKGLEWVAVISYDGRLKYYADSVKGRFTISRDNAEYLVYLQMNSLRAEDTAVYYCAAEPDGEGTNGGLDIWGQGTLVTVSS
VL: DIQMTQSPSSLSASVGDRVTITCRASQNISRYLNWYQQKPGKAPKLLIYSASSLQTGVPSRFSGSGSGTDFTLTISSLQPEDFATYYCQQSYSSGAFGQGTKVEIK
modifications: Synthetic Antibody
notes: also as scFv in CAR
target cell killing when MTX is added to active CAR T cells ("on" to "off") [2]: quick inhibition rates

koff, kinetics toward antigen with 0 µM MTX [1]: 0.0057 s⁻¹
kon, kinetics toward antigen with 0 µM MTX [1]: 50000 M⁻¹ s⁻¹
B2: P03_A01: anti-CD33 clone with conditional affinity; VH SEQ ID NO: 19, VL SEQ ID NO: 20; also as scFv in CAR (antibody, V domains shown)
VH: QVQLVESGGGLVQAGGSLRLSCAASRRSSRSWAMHWVRQAPGKGLEWVAVISYDGRLKYYADSVKGRFTISRDNAEYLVYLQMNSLRAEDTAVYYCAAETGSVGLDYWGQGTLVTVSS
VL: B1 VL with N28G, R31T, S50G, S52T, Q55E, T56S, S91G, S94Q, A96T
modifications: Synthetic Antibody
notes: also as scFv in CAR
target cell killing when MTX is added to active CAR T cells ("on" to "off") [2]: requires two rounds of MTX to be fully inhibited

Reference: patent US20230192839A1, “ANTIBODIES HAVING CONDITIONAL AFFINITY AND METHODS OF USE THEREOF” (PFIZER INC., priority 2017, published 2023)
